These results are taken from patent US20130029377.

This data set addresses Apolipoprotein A-1 Milano (ApoA-1M).

Apolipoprotein A-1 Milano (ApoA-1M), sequence (chain, as listed by the source): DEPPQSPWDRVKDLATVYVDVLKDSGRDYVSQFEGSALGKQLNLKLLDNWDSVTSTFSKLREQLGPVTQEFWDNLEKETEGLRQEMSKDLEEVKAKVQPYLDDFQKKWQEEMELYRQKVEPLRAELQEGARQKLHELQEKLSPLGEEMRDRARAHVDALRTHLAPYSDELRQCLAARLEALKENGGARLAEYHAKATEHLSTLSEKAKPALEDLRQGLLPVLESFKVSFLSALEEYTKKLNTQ

B1: outer membrane protease 3B (Protease 7 precursor, or OmpT) (protein)
chain: STETLSFTPDNINADISLGTLSGKTKERVYLAEEGGRKVSQLDWKFNNAAIIKGAINWDLMPQISIGAAGWTTLGSRGGNMVDQDWMDSSNPGTWTDESRHPDTQLNYANEFDLNIKGWLLNEPNYRLGLMAGYQESRYSFTARGGSYIYSSEEGFRDDIGSFPNGERAIGYKQRFKMPYIGLTGSYRYEDFELGGTFKYSGWVESSDNDEHYDPGKRITYRSKVKDQNYYSVAVNAGYYVTPNAKVYVEGAWNRVTNKKGNTSLYDHNNNTSDYSKNGAGIENYNFITTAGLKYTF
B1 registered an ApoA-1M K238/K239 truncated species (% total ApoA-1M), Capture pool, ompT+ strain ΔdppAΔoppAΔmalE (% total ApoA-1M) of 1.9; an ApoA-1M K238/K239 truncated species (% total ApoA-1M), DEAE pool, ompT+ strain ΔdppAΔoppAΔmalE (% total ApoA-1M) of 1.3; an ApoA-1M K238/K239 truncated species (% total ApoA-1M), DEAE post-peak pool, ompT+ strain ΔdppAΔoppAΔmalE (% total ApoA-1M) of 7; an ApoA-1M K238/K239 truncated species (% total ApoA-1M), selected DEAE post-peak fraction, ompT+ strain ΔdppAΔoppAΔmalE (% total ApoA-1M) of 14.2. Further, the “K238/K239 truncation of ApoA-1M, ompT+ strain against ΔompT strain” value is “marked (~5- to 20-fold) reduction in the amount of truncated ApoA-1M in the GB004 strain compared with the 3K0 strain”.
